Results as given in article PMC10035430.

Key:
[1] = molecular target: GWS1B form II RubisCO (CbbM) from an uncultivated Gallionellaceae species (uncultivated Gallionellaceae sp. (groundwater aquifer metagenome)); experiment: crystal structure
[2] = molecular target: GWS1B form II RubisCO (CbbM) from an uncultivated Gallionellaceae species (uncultivated Gallionellaceae sp. (groundwater aquifer metagenome)); experiment: SEC
[3] = molecular target: GWS1B form II RubisCO (CbbM) from an uncultivated Gallionellaceae species (uncultivated Gallionellaceae sp. (groundwater aquifer metagenome)); experiment: SEC-MALS

Measured: stoichiometry N

GWS1B form II RubisCO (CbbM) from an uncultivated Gallionellaceae species (enzyme)
6: all assays above
